The target in experiment [1] is T1, human B7H3 (CD276) on the cell surface (human, UniProt Q5ZPR3 29-534).
T1 construct: B7H3 on A375 and other B7H3-positive or transfected cells
T1 sequence: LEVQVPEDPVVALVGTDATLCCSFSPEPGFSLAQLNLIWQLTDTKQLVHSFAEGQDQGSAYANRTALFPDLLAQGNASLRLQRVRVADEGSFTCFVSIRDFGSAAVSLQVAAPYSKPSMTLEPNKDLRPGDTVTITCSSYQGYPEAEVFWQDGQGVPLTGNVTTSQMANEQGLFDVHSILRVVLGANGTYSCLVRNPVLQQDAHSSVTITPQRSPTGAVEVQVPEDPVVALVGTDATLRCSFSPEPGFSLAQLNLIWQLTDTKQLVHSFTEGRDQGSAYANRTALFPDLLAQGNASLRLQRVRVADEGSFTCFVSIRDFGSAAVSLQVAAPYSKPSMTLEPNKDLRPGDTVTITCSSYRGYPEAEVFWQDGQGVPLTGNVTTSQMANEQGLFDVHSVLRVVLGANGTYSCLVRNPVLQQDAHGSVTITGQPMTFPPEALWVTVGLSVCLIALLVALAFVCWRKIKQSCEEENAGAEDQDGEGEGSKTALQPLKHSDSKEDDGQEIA
The experiment in a line: flow cytometry on A375 cells (B7H3+), anti-human IgG APC secondary. The procedure:
(§1) Binding of exemplary B7H3-targeting constrained CD3 engaging constructs set forth in Table E3 to CD3 on the surface of primary T cells or B7H3-expressing cells (A375) was assessed by flow cytometry. The T cells were primary T-cells that were negatively enriched from PBMCs isolated from healthy human donor peripheral blood leukopaks. Bound construct was detected with fluorophore-conjugated secondary antibodies specific for the human Fc (anti-human IgG APC secondary antibody) and binding was measured by flow cytometry. Cells incubated with secondary antibody only served as negative controls. Binding was compared to Dual-affinity Re-targeting Antibody (DART)-monomeric Fc format targeting B7H3 and CD3 (DART-Fc B7H3xCD3; see e.g. WO2017030926A1).
For orientation: A flow cytometer gives signals particle by particle.

For experiment [2], the target named is T2, CD3 on the surface of human T cells (human, UniProt P07766 23-207).
T2 construct: whole, on cells; Part of the CD3/TCR complex on cells; also called CD3 epsilon
T2 sequence (P07766 23-207): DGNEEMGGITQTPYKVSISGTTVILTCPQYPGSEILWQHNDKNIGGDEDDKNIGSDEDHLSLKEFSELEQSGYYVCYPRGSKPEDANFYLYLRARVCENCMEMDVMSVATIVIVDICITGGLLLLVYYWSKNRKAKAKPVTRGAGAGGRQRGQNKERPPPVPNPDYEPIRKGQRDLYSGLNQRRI
The experiment in a line: flow cytometry on primary human T cells, anti-human IgG APC secondary. The protocol: as §1

The target in experiment [3] is T1, human B7H3 (CD276) on the cell surface. The experiment in a line: flow cytometry on A375 cells (B7H3+), anti-human Fc secondary.
Experiment [4] concerns the target T2, CD3 on the surface of human T cells. The experiment in a line: flow cytometry on isolated T cells, anti-human Fc secondary. The procedure:
Binding of exemplary multispecific constructs containing an antigen-binding domain directed against B7H3 were assessed for binding to B7H3 positive A375 tumor cells or primary T-cells. The constructs were generated containing antigen-binding domain(s) that were either sdAbs or a FABs, and that were positioned either only N-terminal to the Fc or both N-terminal to the Fc and C-terminal to the anti-CD3 binding domain (see FIGS. 30A and 30C and Table E5). Among the various formats of constructs tested included: sdAb-Fc-dsFV-sdAb (cx3072, cx5952) sdAb-Fc-FV (cx6079), sdAb-Fc-dsFV (cs6080, cx6081), MAB-FV (cx5067) and MAB-dsFV (cx6083, cx6084), where the FV represents the anti-CD3 binding domain composed of VH and VL domain pairs and “ds” notes disulfide stabilized via an engineered interdomain disulfide bond.
Binding was assessed as described above via flow cytometry using a fluorophore-conjugated anti-human Fc secondary antibody. cx3072 bound to A375 cells with high affinity (FIG. 31A) but not to isolated T-cells (FIG. 31B). […] The B7H3 -targeting sdAb containing constructs (cx5952, cx6079, cx6080, and cx6081) bound to B7H3 positive cells with similar affinities (depicted in FIG. 31E), with cx5952 displaying higher maximal binding. cx6079, cx6080 and cx6081 contain two identical B7H3-targeting sdAbs, whereas cx5952, and cx3072 contain two distinct B7H3-targeting sdAb that bind different epitopes. The MAB-FV, cx5067, contains two identical B7H3-targeting FAB domains.

B1: DART-Fc B7H3xCD3 (bispecific antibody)
chain 1: DIQLTQSPSFLSASVGDRVTITCKASQNVDTNVAWYQQKPGKAPKALIYSASYRYSGVPSRFSGSGSGTDFTLTISSLQPEDFATYYCQQYNNYPFTFGQGTKLEIKGGGSGGGGEVQLVESGGGLVQPGGSLRLSCAASGFTFSTYAMNWVRQAPGKGLEWVGRIRSKYNNYATYYADSVKDRFTISRDDSKNSLYLQMNSLKTEDTAVYYCVRHGNFGNSYVSWFAYWGQGTLVTVSSGGCGGGEVAALEKEVAALEKEVAALEKEVAALEKGGGDKTHTCPPCPAPEAAGGPSVFLFPPKPKDTLMISRTPEVTCVVVDVSHEDPEVKFNWYVDGVEVHNAKTKPREEQYNSTYRVVSVLTVLHQDWLNGKEYKCKVSNKALPAPIEKTISKAKGQPREPQVYTLPPSREEMTKNQVSLWCLVKGFYPSDIAVEWESNGQPENNYKTTPPVLDSDGSFFLYSKLTVDKSRWQQGNVFSCSVMHEALHNHYTQKSLSLSPGK
chain 2: QAVVTQEPSLTVSPGGTVTLTCRSSTGAVTTSNYANWVQQKPGQAPRGLIGGTNKRAPWTPARFSGSLLGGKAALTITGAQAEDEADYYCALWYSNLWVFGGGTKLTVLGGGGSGGGGEVQLVESGGGLVQPGGSLRLSCAASGFTFSSFGMHWVRQAPGKGLEWVAYISSDSSAIYYADTVKGRFTISRDNAKNSLYLQMNSLRDEDTAVYYCGRGRENIYYGSRLDYWGQGTTVTVSSGGCGGGKVAALKEKVAALKEKVAALKEKVAALKE
chain 3: not shown
notes: Comparator, an analog of the format of WO2017030926A1; three polypeptide chains; also called B7H3xCD3 DART-Fc
B1: the binding result in experiment [1] was “binds”.

B2: cx2846 (bispecific antibody, not shown: a dimerising Fc or GST)
chain 1: EVQLVESGGGEVQPGGSLRLSCAASGSTFSSYHMSWFRQAPGKQREPVATSHHGGTTNYAGSVKGRFTISRDNAKNTVYLQMNTLRAEDTAVYYCKADHGYQGRGYWGQGTLVTVKPGGSGGGGIEPDIGGSGGSEVQLVESGGGLVQPGGSLRLSCAASGFTFNTYAMNWVRQAPGKCLEWVARIRSKYNNYATYYADSVKGRFTISRDDAKNTLYLQMSSLRAEDTAVYYCVRHGNFGNSYVSWFAYWGQGTLVTVKPEVQLVESGGGEVQPGGSLRLSCAPSERTFSTYTMGWFRQAPGKEREFVAVVNWGGGSKYYAESVKGRFTISRDNAKNTVYLQMSSLRAEDTAVYYCAAGGAYSGPYYDTRQYTYWGQGTLVTVKP
chain 2: GGSGGGGIEPDIGGSGGSQAVVTQEPSLTVSPGGTVTLTCGSSTGAVTTSNYANWVQQKPGQAFRGLIGGTNKRAPGVPARFSGSLLGGKAALTISGAQPEDEADYYCALWYSNHWVFGCGTKLTVL
As to B2, the binding result in experiment [2] is listed as “no binding (tested: 200 nM)”.

B3: cx3960 (bispecific antibody, not shown: a dimerising Fc or GST)
chain 1: EVQLVESGGGEVQPGGSLRLSCAASGSTFSSYHMSWFRQAPGKQREPVATSHHGGTTNYAGSVKGRFTISRDNAKNTVYLQMNTLRAEDTAVYYCKADHGYQGRGYWGQGTLVTVKPGGSGGGGIEPDIGGSGGSEVQLVESGGGLVQPGGSLRLSCAASGFTFNTYAMNWVRQAPGKCLEWVARIRSKYNNYATYYADSVKGRFTISRDDAKNTLYLQMSSLRAEDTAVYYCVRHGNFGNSYVSWFAYWGQGTLVTVKPQLQLQESGGGLVQAGDSLRLSCAASGFSFGSNVMMWVRQAPGKGPEWVSTIYSSGTGTFYADSVKGRFTISRNNAKNTLYLQMNSLKPDDTAVYYCATSGPVRGWGPRSQGTLVTVKP
chain 2: B2 chain 2
Consider B3, for which, in experiment [2], the binding result was “no binding (tested: 200 nM)”.

B4: cx5965 (bispecific antibody)
chain 1: EVQLVESGGGEVQPGGSLRLSCAASGFSFSSNVMMWVRQAPGKGLEWVSTIYSSGTGTFYAESVKGRFTISRDNAKNTLYLQMSSLRPEDTAVYYCATSGPVRGWGPRSQGTLVTVKPPGGGGDKTHTCPPCPAPGGPSVFLFPPKPKDTLMISRTPEVTCVVVDVSHEDPEVKFNWYVDGVEVHNAKTKPREEQYNSTYRVVSVLTVLHQDWLNGKEYKCKVSNKALPAPIEKTISKAKGQPREPQVYTLPPCRDELTKNQVSLWCLVKGFYPSDIAVEWESNGQPENNYKTTPPVLDSDGSFFLYSKLTVDKSRWQQGNVFSCSVMHEALHNHYTQKSLSLSPTGGGGGSGGGGGSGGGGGSEVQLVESGGGLVQPGGSLRLSCAASGFTFNTYAMNWVRQAPGKCLEWVARIRSKYNNYATYYADSVKGRFTISRDDAKNTLYLQMSSLRAEDTAVYYCVRHGNFGNSYVSWFAYWGQGTLVTVKP
chain 2: DKTHTCPPCPAPGGPSVFLFPPKPKDTLMISRTPEVTCVVVDVSHEDPEVKFNWYVDGVEVHNAKTKPREEQYNSTYRVVSVLTVLHQDWLNGKEYKCKVSNKALPAPIEKTISKAKGQPREPQVCTLPPSRDELTKNQVSLSCAVKGFYPSDIAVEWESNGQPENNYKTTPPVLDSDGSFFLVSKLTVDKSRWQQGNVFSCSVMHEALHNRYTQKSLSLSPTGGGGGSGGGGGSGGGGGSQAVVTQEPSLTVSPGGTVTLTCGSSTGAVTTSNYANWVQQKPGQAFRGLIGGTNKRAPGVPARFSGSLLGGKAALTISGAQPEDEADYYCALWYSNHWVFGCGTKLEIKGGGGEVQLLESGGGEVQPGGSLRLSCAASGFSFSINAMGWYRQAPGKRREFVAAIESGRNTVYAESVKGRFTISRDNAKNTVYLQMSSLRAEDTAVYYCGLLKGNRVVSPSVAYWGQGTLVTVKP
notes: first-named used
In the case of B4, the binding result in experiment [3] is on record as “binds”; in experiment [4], “no binding”.

B5: cx4908 (bispecific antibody)
chain 1: EVQLVESGGGEVQPGGSLRLSCAASGSTFSSYHMSWFRQAPGKQREPVATSHHGGTTNYAGSVKGRFTISRDNAKNTVYLQMNTLRAEDTAVYYCKADHGYQGRGYWGQGTLVTVKPDKTHTCPPCPAPGGPSVFLFPPKPKDTLMISRTPEVTCVVVDVSHEDPEVKFNWYVDGVEVHNAKTKPREEQYNSTYRVVSVLTVLHQDWLNGKEYKCKVSNKALPAPIEKTISKAKGQPREPQVYTLPPCRDELTKNQVSLWCLVKGFYPSDIAVEWESNGQPENNYKTTPPVLDSDGSFFLYSKLTVDKSRWQQGNVFSCSVMHEALHNHYTQKSLSLSPTGGSGGGGIEPDIGGSGGSEVQLVESGGGLVQPGGSLRLSCAASGFTFNTYAMNWVRQAPGKCLEWVARIRSKYNNYATYYADSVKGRFTISRDDAKNTLYLQMSSLRAEDTAVYYCVRHGNFGNSYVSWFAYWGQGTLVTVKPEVQLVESGGGEVQPGGSLRLSCAASGFSFGSNVMMWVRQAPGKGPEWVSTIYSSGTGTFYAESVKGRFTISRDNAKNTLYLQMSSLRAEDTAVYYCATSGPVRGWGPWSQGTLVTVKP
chain 2: DKTHTCPPCPAPGGPSVFLFPPKPKDTLMISRTPEVTCVVVDVSHEDPEVKFNWYVDGVEVHNAKTKPREEQYNSTYRVVSVLTVLHQDWLNGKEYKCKVSNKALPAPIEKTISKAKGQPREPQVCTLPPSRDELTKNQVSLSCAVKGFYPSDIAVEWESNGQPENNYKTTPPVLDSDGSFFLVSKLTVDKSRWQQGNVFSCSVMHEALHNRYTQKSLSLSPTGGSGGGGIEPDIGGSGGSQAVVTQEPSLTVSPGGTVTLTCGSSTGAVTTSNYANWVQQKPGQAFRGLIGGTNKRAPGVPARFSGSLLGGKAALTISGAQPEDEADYYCALWYSNHWVFGCGTKLTVLEVQLLESGGGEVQPGGSLRLSCAASGFSFSINAMGWYRQAPGKRREFVAAIESGRNTVYAESVKGRFTISRDNAKNTVYLQMSSLRAEDTAVYYCGLLKGNRVVSPSVAYWGQGTLVTVKP
notes: chain 2 ends in the 4-1BB sdAb RH3v5-1
Regarding B5, the binding result in experiment [2] is recorded as “no binding (tested: 200 nM)”.

The values are drawn from patent US20230124851A1 (INHIBRX LNC, published 2023).
